# Test results taken from patent US20050175608A1 (Kyowa Kirin, published 2005).
# T1: compound 1 as a partial peptide of FGF-8 with the C terminal labeled with biotin (human, C terminal labeled with biotin)
# T1 construct: Captured on Sensor Chip SA (35 RU) for BIAcore 2000; also called compound 1 labeled with biotin; FGF-8 peptide
# T1 peptide: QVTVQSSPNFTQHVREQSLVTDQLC
# T2: BSA-compound 1 (conjugate of the human FGF-8 partial peptide compound 1 with bovine serum albumin) (human, not fully specified; C-terminal cysteine conjugated to BSA through SMCC)
# T2 construct: Coated on ELISA plates; the BSA carrier is not written as a chain
# T2 peptide: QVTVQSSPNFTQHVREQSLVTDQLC
# T3: FGF-8 (manufactured by R & D) (Homo sapiens (Human), UniProt P55075 23-215)
# T3 sequence: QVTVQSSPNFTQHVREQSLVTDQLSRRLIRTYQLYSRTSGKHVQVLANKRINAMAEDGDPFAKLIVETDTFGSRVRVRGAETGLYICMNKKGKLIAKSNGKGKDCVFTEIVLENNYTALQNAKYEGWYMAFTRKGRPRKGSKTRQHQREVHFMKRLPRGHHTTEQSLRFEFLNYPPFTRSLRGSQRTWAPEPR
# Target: T1, compound 1 as a partial peptide of …
# Assay: BIAcore 2000, biotin-labeled compound 1 on SA chip, antibody 16.7 µg/mL; dissociation hardly observed
# Experimental: (§1) In order to examine the FGF-8 binding activity of the anti-FGF-8 neutralizing CDR-grafted antibodies obtained in 5. of Reference Example 3, the FGF-8 binding activity of the various anti-FGF-8 neutralizing CDR-grafted antibodies was measured and compared through BIAcore 2000 using compound 1 as a partial peptide of FGF-8 with the C terminal labeled with biotin in the following manner. The anti-FGF-8 neutralizing chimeric antibody KM3034 derived from CHO/DG44 cells obtained in 3. (1) of Reference Example 1 was used as a positive control.
# (§2) HBS-EP was used as a sample diluent and a buffer during measurement. First, Sensor Chip SA (manufactured by BIACORE) was installed, and 5 μL of compound 1 labeled with biotin which had been adjusted to 0.05 μg/mL was added at a flow rate of 5 μL/min. Then, 5 μL of a 10 mmol/L glycine-hydrochloride solution (pH 1.5) was added twice continuously to wash the tip surface. The immobilization amount of the FGF-8 peptide was 35 RU.
# 60 μL of each of the antibody solutions was added to an FGF-8 peptide immobilized flow cell at a flow rate of 20 μL/min, and the dissociation reaction was then monitored for 3 minutes. After the dissociation reaction, 20 μL of 10 mmol/L glycine-hydrochloride solution (pH 1.5) was added twice continuously to regenerate the chip surface. […]
row,binding result,Binder
1,binds,"anti-FGF-8 neutralizing CDR-grafted antibody HV0LV4-3/CHO (antibody, V domains shown, HV.0 + LV.4-3; also called KM8035) VH: QVQLVQSGAEVKKPGASVKVSCKASGYTFTDYYLNWVRQAPGQGLEWMGEIDPGSDSIYYNENLEGRVTITADTSTSTAYMELSSLRSEDTAVYYCARYGYSRYDVRFVYWGQGTLVTVSS VL: DIVMTQSPLSLPVSLGEPASISCRSSQSLVHSNGRTYLEWYLQKPGQSPQVLIYKVSNRISGVPDRFSGSGSGTDFTLKISRVEAEDVGVYFCFQGSHVPYTFGQGTKVEIK"
2,binds,"anti-FGF-8 neutralizing CDR-grafted antibody HV0LV3-3/CHO (antibody, V domains shown, HV.0 + LV.3-3; CHO/DG44 cell-derived) VH: QVQLVQSGAEVKKPGASVKVSCKASGYTFTDYYLNWVRQAPGQGLEWMGEIDPGSDSIYYNENLEGRVTITADTSTSTAYMELSSLRSEDTAVYYCARYGYSRYDVRFVYWGQGTLVTVSS VL: DIVMTQSPLSLPVSLGEPASISCRSSQSLVHSNGRTYLEWYLQKPGQSPQVLIYKVSNRISGVPDRFSGSGSGTDFTLKISRVEAEDVGVYYCFQGSHVPYTFGQGTKVEIK"

# Target: T1, compound 1 as a partial peptide of …
# Assay: BIAcore 2000, biotin-labeled compound 1 on SA chip (35 RU), antibody 16.7 µg/mL; dissociation hardly observed
# Experimental: as §1, §2
# 60 μL of each of the antibody solutions was added to an FGF-8 peptide immobilized flow cell at a flow rate of 20 μL/min, and the dissociation reaction was then monitored for 3 minutes. After the dissociation reaction, 20 μL of 10 mmol/L glycine-hydrochloride solution (pH 1.5) was added twice continuously to regenerate the chip surface. This cycle was performed on the antibody solution at various concentrations (from 50 to 1.85 μg/mL) to obtain sensor grams at various concentrations. The sensor grams of the respective antibodies were converted to sensor grams of specific reactions by deduceing a sensor gram obtained using the chimeric antibody KM871 to GD3 as a negative control.
row,Binder,binding result
1,"anti-FGF-8 neutralizing CDR-grafted antibody HV0LV3-1/CHO (antibody, V domains shown, HV.0 + LV.3-1; also called KM8036) VH: QVQLVQSGAEVKKPGASVKVSCKASGYTFTDYYLNWVRQAPGQGLEWMGEIDPGSDSIYYNENLEGRVTITADTSTSTAYMELSSLRSEDTAVYYCARYGYSRYDVRFVYWGQGTLVTVSS VL: DVVMTQSPLSLPVTPGEPASISCRSSQSLVHSNGRTYLEWYLQKPGQSPQVLIYKVSNRISGVPDRFSGSGSGTDFTLKISRVEAEDVGVYFCFQGSHVPYTFGQGTKVEIK",binds
2,"anti-FGF-8 neutralizing chimeric antibody KM3034 (antibody, V domains shown, expressed in CHO/DG44 cells; also called human chimeric antibody KM3034) VH: QVQLQQSGAEVARPGASVKLSCKASGYTFTDYYLNWVKQRSGQGLEWIGEIDPGSDSIYYNENLEGRATLTADKSSSTAYMQLNSLTSEDSAVYFCARYGYSRYDVRFVYWGQGTLVTVST VL: DVLMTQTPLSLPVSLGDQASISCRSSQSLVHSNGRTYLEWYLQKPGQSPKVLIYKVSNRISGVPDRFSGSGSGTDFTLKISRVEAEDLGVYFCFQGSHVPYTFGGGTKLEIK",binds
3,"anti-FGF-8 neutralizing CDR-grafted antibody HV0LV2-1/CHO (antibody, V domains shown, HV.0 + LV.2-1; CHO/DG44 cell-derived) VH: QVQLVQSGAEVKKPGASVKVSCKASGYTFTDYYLNWVRQAPGQGLEWMGEIDPGSDSIYYNENLEGRVTITADTSTSTAYMELSSLRSEDTAVYYCARYGYSRYDVRFVYWGQGTLVTVSS VL: DIVMTQSPLSLPVTPGEPASISCRSSQSLVHSNGRTYLEWYLQKPGQSPQVLIYKVSNRISGVPDRFSGSGSGTDFTLKISRVEAEDVGVYFCFQGSHVPYTFGQGTKVEIK",binds
4,"anti-FGF-8 neutralizing CDR-grafted antibody HV0LV3-2/CHO (antibody, V domains shown, HV.0 + LV.3-2; CHO/DG44 cell-derived) VH: QVQLVQSGAEVKKPGASVKVSCKASGYTFTDYYLNWVRQAPGQGLEWMGEIDPGSDSIYYNENLEGRVTITADTSTSTAYMELSSLRSEDTAVYYCARYGYSRYDVRFVYWGQGTLVTVSS VL: DIVMTQSPLSLPVSLGEPASISCRSSQSLVHSNGRTYLEWYLQKPGQSPQLLIYKVSNRISGVPDRFSGSGSGTDFTLKISRVEAEDVGVYFCFQGSHVPYTFGQGTKVEIK",binds
5,"anti-FGF-8 neutralizing CDR-grafted antibody HV0LV4-1/CHO (antibody, V domains shown, HV.0 + LV.4-1; CHO/DG44 cell-derived) VH: QVQLVQSGAEVKKPGASVKVSCKASGYTFTDYYLNWVRQAPGQGLEWMGEIDPGSDSIYYNENLEGRVTITADTSTSTAYMELSSLRSEDTAVYYCARYGYSRYDVRFVYWGQGTLVTVSS VL: DVVMTQSPLSLPVTPGEPASISCRSSQSLVHSNGRTYLEWYLQKPGQSPKVLIYKVSNRISGVPDRFSGSGSGTDFTLKISRVEAEDVGVYFCFQGSHVPYTFGQGTKVEIK",binds
6,"anti-FGF-8 neutralizing CDR-grafted antibody HV0LV0/CHO (antibody, V domains shown, HV.0 + LV.0; CHO/DG44 cell-derived) VH: QVQLVQSGAEVKKPGASVKVSCKASGYTFTDYYLNWVRQAPGQGLEWMGEIDPGSDSIYYNENLEGRVTITADTSTSTAYMELSSLRSEDTAVYYCARYGYSRYDVRFVYWGQGTLVTVSS VL: DIVMTQSPLSLPVTPGEPASISCRSSQSLVHSNGRTYLEWYLQKPGQSPQLLIYKVSNRISGVPDRFSGSGSGTDFTLKISRVEAEDVGVYYCFQGSHVPYTFGQGTKVEIK",binds
7,"anti-FGF-8 neutralizing CDR-grafted antibody HV0LV6/CHO (antibody, V domains shown, HV.0 + LV.6; CHO/DG44 cell-derived; also called KM8034) VH: QVQLVQSGAEVKKPGASVKVSCKASGYTFTDYYLNWVRQAPGQGLEWMGEIDPGSDSIYYNENLEGRVTITADTSTSTAYMELSSLRSEDTAVYYCARYGYSRYDVRFVYWGQGTLVTVSS VL: DVVMTQSPLSLPVSLGEPASISCRSSQSLVHSNGRTYLEWYLQKPGQSPKVLIYKVSNRISGVPDRFSGSGSGTDFTLKISRVEAEDVGVYFCFQGSHVPYTFGQGTKVEIK",binds

# The next lines start with the values.
row,binding result,Binder
1,binds,"anti-FGF-8 neutralizing CDR-grafted antibody HV0LV2-2/CHO (antibody, V domains shown, HV.0 + LV.2-2; CHO/DG44 cell-derived) VH: QVQLVQSGAEVKKPGASVKVSCKASGYTFTDYYLNWVRQAPGQGLEWMGEIDPGSDSIYYNENLEGRVTITADTSTSTAYMELSSLRSEDTAVYYCARYGYSRYDVRFVYWGQGTLVTVSS VL: DVVMTQSPLSLPVTPGEPASISCRSSQSLVHSNGRTYLEWYLQKPGQSPQLLIYKVSNRISGVPDRFSGSGSGTDFTLKISRVEAEDVGVYFCFQGSHVPYTFGQGTKVEIK"
2,binds,"anti-FGF-8 neutralizing CDR-grafted antibody HV0LV4-2/CHO (antibody, V domains shown, HV.0 + LV.4-2; CHO/DG44 cell-derived) VH: QVQLVQSGAEVKKPGASVKVSCKASGYTFTDYYLNWVRQAPGQGLEWMGEIDPGSDSIYYNENLEGRVTITADTSTSTAYMELSSLRSEDTAVYYCARYGYSRYDVRFVYWGQGTLVTVSS VL: DVVMTQSPLSLPVSLGEPASISCRSSQSLVHSNGRTYLEWYLQKPGQSPQLLIYKVSNRISGVPDRFSGSGSGTDFTLKISRVEAEDVGVYFCFQGSHVPYTFGQGTKVEIK"

# Target: T2, BSA-compound 1 (conjugate of the human …)
# Assay: ELISA, plate coated with BSA-compound 1
row,binding result,Binder
1,binds,"anti-FGF-8 neutralizing CDR-grafted antibody HV0LV6 (antibody, V domains shown, HV.0 + LV.6; YB2/0 cell-derived; also called KM8037) VH: QVQLVQSGAEVKKPGASVKVSCKASGYTFTDYYLNWVRQAPGQGLEWMGEIDPGSDSIYYNENLEGRVTITADTSTSTAYMELSSLRSEDTAVYYCARYGYSRYDVRFVYWGQGTLVTVSS VL: DVVMTQSPLSLPVSLGEPASISCRSSQSLVHSNGRTYLEWYLQKPGQSPKVLIYKVSNRISGVPDRFSGSGSGTDFTLKISRVEAEDVGVYFCFQGSHVPYTFGQGTKVEIK"
2,binds,"anti-FGF-8 neutralizing CDR-grafted antibody HV6LV6 (antibody, V domains shown, HV.6 + LV.6) VH: QVQLVQSGAEVARPGASVKVSCKASGYTFTDYYLNWVRQRSGQGLEWIGEIDPGSDSIYYNENLEGRVTITADTSTSTAYMELSSLRSEDTAVYFCARYGYSRYDVRFVYWGQGTLVTVSS VL: DVVMTQSPLSLPVSLGEPASISCRSSQSLVHSNGRTYLEWYLQKPGQSPKVLIYKVSNRISGVPDRFSGSGSGTDFTLKISRVEAEDVGVYFCFQGSHVPYTFGQGTKVEIK"
3,binds,"anti-FGF-8 neutralizing CDR-grafted antibody HV0LV0 (antibody, V domains shown, HV.0 + LV.0) VH: QVQLVQSGAEVKKPGASVKVSCKASGYTFTDYYLNWVRQAPGQGLEWMGEIDPGSDSIYYNENLEGRVTITADTSTSTAYMELSSLRSEDTAVYYCARYGYSRYDVRFVYWGQGTLVTVSS VL: DIVMTQSPLSLPVTPGEPASISCRSSQSLVHSNGRTYLEWYLQKPGQSPQLLIYKVSNRISGVPDRFSGSGSGTDFTLKISRVEAEDVGVYYCFQGSHVPYTFGQGTKVEIK"

# Target: T3, FGF-8 (manufactured by R & D)
# Assay: cell-based or functional assay
row,"FGF-8 neutralizing activity (FGF-8-dependent growth of SC-3 cells), relative to KM3034",Binder
1,~0.5 fold of KM3034,"anti-FGF-8 neutralizing CDR-grafted antibody HV0LV4-3/CHO (antibody, V domains shown, HV.0 + LV.4-3; also called KM8035) VH: QVQLVQSGAEVKKPGASVKVSCKASGYTFTDYYLNWVRQAPGQGLEWMGEIDPGSDSIYYNENLEGRVTITADTSTSTAYMELSSLRSEDTAVYYCARYGYSRYDVRFVYWGQGTLVTVSS VL: DIVMTQSPLSLPVSLGEPASISCRSSQSLVHSNGRTYLEWYLQKPGQSPQVLIYKVSNRISGVPDRFSGSGSGTDFTLKISRVEAEDVGVYFCFQGSHVPYTFGQGTKVEIK"
2,~0.5 fold of KM3034,"anti-FGF-8 neutralizing CDR-grafted antibody HV0LV3-3/CHO (antibody, V domains shown, HV.0 + LV.3-3; CHO/DG44 cell-derived) VH: QVQLVQSGAEVKKPGASVKVSCKASGYTFTDYYLNWVRQAPGQGLEWMGEIDPGSDSIYYNENLEGRVTITADTSTSTAYMELSSLRSEDTAVYYCARYGYSRYDVRFVYWGQGTLVTVSS VL: DIVMTQSPLSLPVSLGEPASISCRSSQSLVHSNGRTYLEWYLQKPGQSPQVLIYKVSNRISGVPDRFSGSGSGTDFTLKISRVEAEDVGVYYCFQGSHVPYTFGQGTKVEIK"
